We go through one substance from patent US20140243502A1.

Assay [1] concerns the target GP IIb/IIIa in its activated, fibrinogen-bound state on activated mouse platelets (mouse) (UniProt Q9QUM0). Description: ex vivo 11.7 T MRI of wire-injured mouse femoral artery after bead perfusion.
For assay [2] the target is unchanged. Description: histology of wire-injured mouse femoral artery after bead perfusion, 20-25 sections per animal.

Chain of GP IIb/IIIa in its activated, fibrinogen-bound state on activated mouse platelets (mouse) (Q9QUM0 32-1033, chain 1 of 2): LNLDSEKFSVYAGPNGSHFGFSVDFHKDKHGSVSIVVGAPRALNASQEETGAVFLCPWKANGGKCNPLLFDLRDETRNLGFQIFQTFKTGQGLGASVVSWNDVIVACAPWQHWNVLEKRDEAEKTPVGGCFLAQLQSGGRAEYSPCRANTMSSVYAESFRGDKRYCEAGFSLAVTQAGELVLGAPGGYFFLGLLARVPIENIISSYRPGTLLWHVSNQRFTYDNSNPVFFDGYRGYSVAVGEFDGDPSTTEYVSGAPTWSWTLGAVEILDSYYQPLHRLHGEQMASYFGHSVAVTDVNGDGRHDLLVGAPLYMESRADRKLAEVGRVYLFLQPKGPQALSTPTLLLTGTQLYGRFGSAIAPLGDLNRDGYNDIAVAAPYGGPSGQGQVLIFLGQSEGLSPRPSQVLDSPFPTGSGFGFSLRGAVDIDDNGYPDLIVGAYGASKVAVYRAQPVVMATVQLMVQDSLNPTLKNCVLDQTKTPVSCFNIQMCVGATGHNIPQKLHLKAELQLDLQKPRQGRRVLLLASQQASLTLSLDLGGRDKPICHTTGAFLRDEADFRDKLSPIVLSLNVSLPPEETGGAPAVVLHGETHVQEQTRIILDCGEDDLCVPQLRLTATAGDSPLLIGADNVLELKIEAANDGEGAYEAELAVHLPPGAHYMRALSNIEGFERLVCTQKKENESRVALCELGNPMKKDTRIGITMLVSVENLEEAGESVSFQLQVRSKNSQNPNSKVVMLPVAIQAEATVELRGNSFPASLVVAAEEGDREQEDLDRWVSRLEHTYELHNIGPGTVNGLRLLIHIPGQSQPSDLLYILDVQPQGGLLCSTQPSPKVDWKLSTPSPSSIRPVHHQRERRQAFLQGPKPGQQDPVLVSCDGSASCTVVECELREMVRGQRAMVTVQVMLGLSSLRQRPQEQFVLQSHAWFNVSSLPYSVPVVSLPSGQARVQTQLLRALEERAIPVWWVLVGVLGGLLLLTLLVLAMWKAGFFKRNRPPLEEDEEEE
Chain of GP IIb/IIIa in its activated, fibrinogen-bound state on activated mouse platelets (mouse) (O54890 26-787, chain 2 of 2, further chain): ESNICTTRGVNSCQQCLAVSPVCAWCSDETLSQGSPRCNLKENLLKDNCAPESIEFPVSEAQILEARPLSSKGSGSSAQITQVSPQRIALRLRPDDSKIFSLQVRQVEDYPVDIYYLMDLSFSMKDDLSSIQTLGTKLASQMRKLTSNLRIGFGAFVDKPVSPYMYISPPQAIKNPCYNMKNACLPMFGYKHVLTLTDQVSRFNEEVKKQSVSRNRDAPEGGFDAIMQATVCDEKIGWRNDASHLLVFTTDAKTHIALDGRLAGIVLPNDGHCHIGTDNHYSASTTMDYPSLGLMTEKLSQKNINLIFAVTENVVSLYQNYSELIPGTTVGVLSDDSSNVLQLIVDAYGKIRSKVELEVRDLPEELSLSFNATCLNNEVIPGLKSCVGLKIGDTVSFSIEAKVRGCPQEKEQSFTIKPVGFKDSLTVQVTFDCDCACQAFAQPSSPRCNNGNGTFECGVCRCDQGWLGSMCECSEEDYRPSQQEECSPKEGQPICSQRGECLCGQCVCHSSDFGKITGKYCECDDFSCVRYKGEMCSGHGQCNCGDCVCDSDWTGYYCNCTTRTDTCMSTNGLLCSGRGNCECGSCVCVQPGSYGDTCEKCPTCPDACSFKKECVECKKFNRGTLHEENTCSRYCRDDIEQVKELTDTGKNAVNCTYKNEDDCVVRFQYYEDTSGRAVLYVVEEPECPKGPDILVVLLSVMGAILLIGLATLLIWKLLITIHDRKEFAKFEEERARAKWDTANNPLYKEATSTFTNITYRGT

Regarding “Control-MPIO (irrelevant single-chain antibody conjugated to 1 µm iron oxide microparticles) (scFv)”, the luminal areas of low signal (MPIO-induced MRI signal void) in assay [1] was found to be 6.2. In assay [2], this substance registered an MPIOs bound per histology section (beads per section) of 0.5.
